# Laboratory results reported in patent US20240181007A1, “COMPOSITIONS AND METHODS FOR TREATING PULMONARY HYPERTENSION” (Acceleron Pharma Inc., priority 2021, published 2024).
# T1: activin A (UniProt P08476 311-426)
# T1 construct: Soluble ligand injected in SPR or added in the reporter assay
# T1 sequence (looked up): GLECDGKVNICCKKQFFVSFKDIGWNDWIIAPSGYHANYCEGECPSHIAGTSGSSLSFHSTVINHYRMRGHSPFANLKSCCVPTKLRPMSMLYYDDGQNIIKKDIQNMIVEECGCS
# T2: BMP10 (UniProt O95393 317-424)
# T2 sequence (looked up): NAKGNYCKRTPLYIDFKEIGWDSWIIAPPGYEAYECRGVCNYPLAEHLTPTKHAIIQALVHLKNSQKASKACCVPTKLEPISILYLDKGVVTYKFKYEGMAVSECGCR
# T3: GDF8 (UniProt O14793 267-375)
# T3 construct: also called Growth and differentiation factor-8; myostatin
# T3 sequence (looked up): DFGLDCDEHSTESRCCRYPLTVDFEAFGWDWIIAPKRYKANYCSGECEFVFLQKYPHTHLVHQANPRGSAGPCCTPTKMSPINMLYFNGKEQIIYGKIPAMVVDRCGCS
# T4: BMP6 (UniProt P22004 382-513, limits assumed)
# T4 sequence (looked up): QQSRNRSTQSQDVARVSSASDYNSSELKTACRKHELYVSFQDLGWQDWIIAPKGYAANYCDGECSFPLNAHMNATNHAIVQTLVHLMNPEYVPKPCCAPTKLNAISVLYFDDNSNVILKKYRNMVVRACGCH
# T5: GDF11 (UniProt O95390 299-407)
# T5 construct: also called Growth and differentiation factor-11; BMP11
# T5 sequence (looked up): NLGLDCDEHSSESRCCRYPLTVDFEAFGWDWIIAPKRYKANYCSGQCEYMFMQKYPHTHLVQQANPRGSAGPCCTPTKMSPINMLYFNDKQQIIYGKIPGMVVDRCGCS
# T6: activin B (UniProt P09529 293-407)
# T6 sequence (looked up): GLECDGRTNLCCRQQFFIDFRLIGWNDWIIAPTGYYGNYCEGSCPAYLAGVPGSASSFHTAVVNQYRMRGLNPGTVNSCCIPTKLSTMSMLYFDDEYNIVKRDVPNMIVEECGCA
# T7: BMP9 (UniProt Q9UK05 320-429)
# T7 sequence (looked up): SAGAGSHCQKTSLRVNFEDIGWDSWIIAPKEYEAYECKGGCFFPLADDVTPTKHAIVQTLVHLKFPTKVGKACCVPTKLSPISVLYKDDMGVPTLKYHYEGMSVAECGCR
# T8: GDF3 (UniProt Q9NR23 251-364)
# T8 sequence (looked up): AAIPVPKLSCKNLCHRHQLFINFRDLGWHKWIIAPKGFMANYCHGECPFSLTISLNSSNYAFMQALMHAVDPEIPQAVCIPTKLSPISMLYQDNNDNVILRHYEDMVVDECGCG
# B1: ActRIIB-Fc:ActRIIB(L79E)-Fc heterodimer (Fc fusion)
# chain 1: GRGEAETRECIYYNANWELERTNQSGLERCEGEQDKRLHCYASWRNSSGTIELVKKGCWEDDFNCYDRQECVATEENPQVYFCCCEGNFCNERFTHLPEAGGPEVTYEPPPTAPTGGGTHTCPPCPAPELLGGPSVFLFPPKPKDTLMISRTPEVTCVVVDVSHEDPEVKFNWYVDGVEVHNAKTKPREEQYNSTYRVVSVLTVLHQDWLNGKEYKCKVSNKALPAPIEKTISKAKGQPREPQVYTLPPSREEMTKNQVSLTCLVKGFYPSDIAVEWESNGQPENNYDTTPPVLDSDGSFFLYSDLTVDKSRWQQGNVFSCSVMHEALHNHYTQKSLSLSPG
# chain 2: GRGEAETRECIYYNANWELERTNQSGLERCEGEQDKRLHCYASWRNSSGTIELVKKGCWLDDFNCYDRQECVATEENPQVYFCCCEGNFCNERFTHLPEAGGPEVTYEPPPTAPTGGGTHTCPPCPAPELLGGPSVFLFPPKPKDTLMISRTPEVTCVVVDVSHEDPEVKFNWYVDGVEVHNAKTKPREEQYNSTYRVVSVLTVLHQDWLNGKEYKCKVSNKALPAPIEKTISKAKGQPREPQVYTLPPSRKEMTKNQVSLTCLVKGFYPSDIAVEWESNGQPENNYKTTPPVLKSDGSFFLYSKLTVDKSRWQQGNVFSCSVMHEALHNHYTQKSLSLSPGK
# notes: The ActRIIB extracellular domains and linkers are the same in both pairs; also called ActRIIB-Fc:ActRIIB(L79E)-Fc heteromer
# Experiments:
# [1] = Muscle-building activity in vivo; conditions: material from CHO, HEK293 and COS cells; variability in potency was observed
# [2] = biological target: T1, activin A; assay: SPR (Biacore), 37 C
# Procedure: (§1) A Biacore™-based binding assay was used to compare the ligand binding kinetics of an ActRIIB-Fc:ActRIIB(L79E)-Fc heterodimer with those of unmodified ActRIIB-Fc homodimer. Fusion proteins were captured onto the system using an anti-Fc antibody. Ligands were then injected and allowed to flow over the captured receptor protein at 37° C. Results are summarized in the table below, in which ligand off-rates (kd) most indicative of effective ligand traps are denoted in bold.
# [3] = biological target: T2, BMP10; assay: SPR (Biacore), 37 C
# Procedure: as §1
# [4] = biological target: T3, GDF8; assay: SPR (Biacore), fusion protein captured by anti-Fc antibody, ligand injected, 37 C
# Procedure: as §1
# [5] = biological target: T1, activin A; assay: as above
# Procedure: as §1
# [6] = biological target: T4, BMP6; assay: as above
# Procedure: as §1
# [7] = biological target: T5, GDF11; assay: as above
# Procedure: as §1
# [8] = biological target: T6, activin B; assay: as above
# Procedure: as §1
# [9] = biological target: T2, BMP10; assay: as above
# Procedure: as §1
# [10] = biological target: T7, BMP9; assay: as above
# Procedure: as §1
# [11] = biological target: T8, GDF3; assay: as above
# Procedure: as §1
molecule,measurement,setting,value
ActRIIB-G1Fc: extracellular domain of human ActRIIB fused to a human G1Fc domain with a three-glycine linker; SEQ ID NO: 5,muscle-building activity in vivo,[1],muscle-building activity in vivo
B1,fold faster off-rate compared to ActRIIB-Fc homodimer,[2],~10 fold
same,fold faster off-rate compared to ActRIIB-Fc homodimer,[3],~10 fold
same,Kd,[4],0.15 nM
same,koff,[4],0.0005 s⁻¹
same,kon,[4],3.4e+06 M⁻¹ s⁻¹
same,Kd,[5],0.17 nM
same,koff,[5],0.0015 s⁻¹
same,kon,[5],8.8e+06 M⁻¹ s⁻¹
same,Kd,[6],0.056 nM
same,koff,[6],0.018 s⁻¹
same,kon,[6],3.3e+08 M⁻¹ s⁻¹
same,Kd,[7],0.009 nM
same,koff,[7],0.00036 s⁻¹
same,kon,[7],4e+07 M⁻¹ s⁻¹
same,Kd,[8],0.025 nM
same,koff,[8],0.00021 s⁻¹
same,kon,[8],8.3e+06 M⁻¹ s⁻¹
same,Kd,[9],0.042 nM
same,koff,[9],0.002 s⁻¹
same,kon,[9],4.8e+07 M⁻¹ s⁻¹
same,Kd,[10],> 2.8 nM
same,Kd,[11],10 nM
same,koff,[11],0.0059 s⁻¹
same,kon,[11],580000 M⁻¹ s⁻¹
